The numbers were not newly measured in article PMC6934062, which cites them from elsewhere.

The target of the series is TDP-43 NTD (Homo sapiens) (UniProt Q13148).

Regarding TDP-43 NTD (from UniProt Q13148), the Kd (as a rule, a measure of binding affinity in units of concentration) is 70 µM.
